{"source": "patent US20040018971A1", "about": "(published 2004)", "key": {"[1]": {"target": "HLA-A*0301 (purified HLA class I molecule) (human)", "assay": "competition vs 125I standard peptide, purified HLA"}, "[2]": {"target": "T1, HLA-A*1101 (purified HLA class I molecule) (human)", "T1 construct": "Purified MHC molecule", "assay": "competition vs 125I standard peptide, purified HLA"}, "[3]": {"target": "HLA-A*1101 (purified HLA class I molecule) (human)", "assay": "inhibition of 125I probe peptide binding to purified HLA; ratio to standard peptide"}, "[4]": {"target": "T2, HLA-A*0301 (purified HLA class I molecule) (human)", "T2 construct": "also called A3", "assay": "inhibition of 125I probe peptide binding to purified HLA; ratio to standard peptide"}, "HLA-A*2401": {"target": "T3, HLA-A*2401 (human)", "T3 construct": "Purified HLA class I molecule (kind: MHC class I); also called A*2402", "assay": "inhibition of 125I-labelled standard peptide binding to purified HLA, gel filtration"}, "HLA-A*0201": {"target": "T4, HLA-A*0201 (human)", "T4 construct": "also called HLA-A2.1", "assay": "competition with 125I-labelled standard peptide 941.01 ([..]) on purified HLA, gel filtration"}, "HLA-A*1101": {"target": "HLA-A*1101 (human)", "assay": "competitive inhibition of 125I-labeled probe peptide binding to purified HLA-A*1101, gel filtration"}}}
{"binder": "KIPVAIKVLR", "note": "[HER2/neu peptide, position 747, 10 amino acids]", "values": [{"measurement": "relative binding ratio", "setting": "[1]", "value": "0.0009 ratio (IC50 standard/IC50 test)"}, {"measurement": "relative binding ratio", "setting": "[2]", "value": "0.0099 ratio (IC50 standard/IC50 test)"}]}
{"binder": "ALESILRRR (also called Her2/neu.890 (9-mer))", "note": "[HER2/neu peptide, position 890, 9 amino acids]", "values": [{"measurement": "relative binding ratio", "setting": "[3]", "value": "0.0006 ratio (IC50 standard / IC50 test)"}, {"measurement": "relative binding ratio", "setting": "[4]", "value": "0.0013 ratio (IC50 standard / IC50 test)"}]}
{"binder": "GVGSPYVSR", "note": "[HER2/neu peptide, position 776, 9 amino acids]", "values": [{"measurement": "relative binding ratio", "setting": "[1]", "value": "0.001 ratio (IC50 standard/IC50 test)"}, {"measurement": "relative binding ratio", "setting": "[2]", "value": "0.0066 ratio (IC50 standard/IC50 test)"}]}
{"binder": "CYQDTILW (also called Her2/neu.162 (8-mer))", "note": "[HER2/neu peptide, position 162, 8 amino acids]", "values": [{"measurement": "relative binding ratio", "setting": "HLA-A*2401", "value": "0.012 ratio (IC50 of standard peptide / IC50 of test peptide)"}]}
{"binder": "GLACHQLCAR (also called Her2/neu.508 (10-mer))", "note": "[HER2/neu peptide, position 508, 10 amino acids]", "values": [{"measurement": "relative binding ratio", "setting": "[3]", "value": "0.0001 ratio (IC50 standard / IC50 test)"}, {"measurement": "relative binding ratio", "setting": "[4]", "value": "0.011 ratio (IC50 standard / IC50 test)"}]}
{"binder": "CMQIAKGMSYL (also called Her2/neu.826 (11-mer))", "note": "[HER2/neu peptide, position 826, 11 amino acids]", "values": [{"measurement": "relative binding ratio", "setting": "HLA-A*2401", "value": "-0.0003 ratio (IC50 of standard peptide / IC50 of test peptide)"}]}
{"binder": "DVRPQPPSPR (also called Her2/neu.1144 (10-mer))", "note": "[HER2/neu peptide, position 1144, 10 amino acids]", "values": [{"measurement": "relative binding ratio", "setting": "[3]", "value": "0.0001 ratio (IC50 standard / IC50 test)"}, {"measurement": "relative binding ratio", "setting": "[4]", "value": "0.0003 ratio (IC50 standard / IC50 test)"}]}
{"binder": "AFDNLYYW (also called Her2/neu.1216 (8-mer))", "note": "[HER2/neu peptide, position 1216, 8 amino acids]", "values": [{"measurement": "relative binding ratio", "setting": "HLA-A*2401", "value": "0.0039 ratio (IC50 of standard peptide / IC50 of test peptide)"}]}
{"binder": "AWPDSLPDL (also called Her2/neu.414 (9-mer))", "note": "[HER2/neu peptide, position 414, 9 amino acids]", "values": [{"measurement": "relative binding ratio", "setting": "HLA-A*2401", "value": "0.0041 ratio (IC50 of standard peptide / IC50 of test peptide)"}]}
{"binder": "AFGTVYKGIWI (also called Her2/neu.730 (11-mer))", "note": "[HER2/neu peptide, position 730, 11 amino acids]", "values": [{"measurement": "relative binding ratio", "setting": "HLA-A*2401", "value": "0.0008 ratio (IC50 of standard peptide / IC50 of test peptide)"}]}
{"binder": "GIWIPDGENV (Synthetic peptide)", "note": "[HER2/neu A02 supermotif peptide, position 737, 10 amino acids]", "values": [{"measurement": "relative binding ratio", "setting": "HLA-A*0201", "value": "0.0002 ratio (IC50 of standard peptide / IC50 of test peptide)"}]}
{"binder": "AMPNQAQMRI (also called Her2/neu.705 (10-mer))", "note": "[HER2/neu peptide, position 705, 10 amino acids]", "values": [{"measurement": "relative binding ratio", "setting": "HLA-A*2401", "value": "0.0002 ratio (IC50 of standard peptide / IC50 of test peptide)"}]}
{"binder": "HSCVDLDDK", "note": "[HER2/neu peptide, position 632, 9 amino acids]", "values": [{"measurement": "relative binding ratio", "setting": "[1]", "value": "-0.0002 ratio (IC50 standard/IC50 test)"}, {"measurement": "relative binding ratio", "setting": "[2]", "value": "0.0007 ratio (IC50 standard/IC50 test)"}]}
{"binder": "GLGISWLGL (Synthetic peptide)", "note": "[HER2/neu A02 supermotif peptide, position 447, 9 amino acids]", "values": [{"measurement": "relative binding ratio", "setting": "HLA-A*0201", "value": "0.0018 ratio (IC50 of standard peptide / IC50 of test peptide)"}]}
{"binder": "LVHRDLAAR", "note": "[HER2/neu peptide, position 841, 9 amino acids]", "values": [{"measurement": "relative binding ratio", "setting": "[1]", "value": "0.004 ratio (IC50 standard/IC50 test)"}, {"measurement": "relative binding ratio", "setting": "[2]", "value": "0.0014 ratio (IC50 standard/IC50 test)"}]}
{"binder": "LTLIDTNRSR", "note": "[HER2/neu peptide, position 181, 10 amino acids]", "values": [{"measurement": "relative binding ratio", "setting": "[1]", "value": "0.0002 ratio (IC50 standard/IC50 test)"}, {"measurement": "relative binding ratio", "setting": "[2]", "value": "0.0005 ratio (IC50 standard/IC50 test)"}]}
{"binder": "AMPNQAQMR (T0001 prints N there)", "values": [{"measurement": "relative binding ratio", "setting": "HLA-A*1101", "value": "0.0006 ratio (IC50 of standard peptide / IC50 of test peptide)"}]}
{"binder": "LIKRRQQKIR", "note": "[HER2/neu peptide, position 674, 10 amino acids]", "values": [{"measurement": "relative binding ratio", "setting": "[1]", "value": "0.0002 ratio (IC50 standard/IC50 test)"}, {"measurement": "relative binding ratio", "setting": "[2]", "value": "0.0001 ratio (IC50 standard/IC50 test)"}]}
{"binder": "AYSLTLQGLGI (also called Her2/neu.440 (11-mer))", "note": "[HER2/neu peptide, position 440, 11 amino acids]", "values": [{"measurement": "relative binding ratio", "setting": "HLA-A*2401", "value": "0.023 ratio (IC50 of standard peptide / IC50 of test peptide)"}]}
{"binder": "AMPNQAQMR (also called Her2/neu.705 (9-mer))", "values": [{"measurement": "relative binding ratio", "setting": "[3]", "value": "0.0006 ratio (IC50 standard / IC50 test)"}, {"measurement": "relative binding ratio", "setting": "[4]", "value": "0.0004 ratio (IC50 standard / IC50 test)"}]}
{"binder": "AFSPAFDNLY", "note": "[HER2/neu peptide, position 1212, 10 amino acids]", "values": [{"measurement": "relative binding ratio", "setting": "HLA-A*1101", "value": "0.0003 ratio (IC50 of standard peptide / IC50 of test peptide)"}]}
{"binder": "GVGSPYVSRL (Synthetic peptide)", "note": "[HER2/neu A02 supermotif peptide, position 776, 10 amino acids]", "values": [{"measurement": "relative binding ratio", "setting": "HLA-A*0201", "value": "0.0001 ratio (IC50 of standard peptide / IC50 of test peptide)"}]}
{"binder": "HADGGKVPIK", "note": "[HER2/neu peptide, position 878, 10 amino acids]", "values": [{"measurement": "relative binding ratio", "setting": "[1]", "value": "0.0003 ratio (IC50 standard/IC50 test)"}, {"measurement": "relative binding ratio", "setting": "[2]", "value": "0.0008 ratio (IC50 standard/IC50 test)"}]}
{"binder": "CYQDTILWKDI (also called Her2/neu.162 (11-mer))", "note": "[HER2/neu peptide, position 162, 11 amino acids]", "values": [{"measurement": "relative binding ratio", "setting": "HLA-A*2401", "value": "0.0016 ratio (IC50 of standard peptide / IC50 of test peptide)"}]}
{"binder": "GMSYLEDVRL (Synthetic peptide)", "note": "[HER2/neu A02 supermotif peptide, position 832, 10 amino acids]", "values": [{"measurement": "relative binding ratio", "setting": "HLA-A*0201", "value": "0.0017 ratio (IC50 of standard peptide / IC50 of test peptide)"}]}
{"binder": "GLPREYVNAR (also called Her2/neu.549 (10-mer))", "note": "[HER2/neu peptide, position 549, 10 amino acids]", "values": [{"measurement": "relative binding ratio", "setting": "[3]", "value": "0.0003 ratio (IC50 standard / IC50 test)"}, {"measurement": "relative binding ratio", "setting": "[4]", "value": "0.0002 ratio (IC50 standard / IC50 test)"}]}
{"binder": "ALTLIDTNR (also called Her2/neu.180 (9-mer))", "note": "[HER2/neu peptide, position 180, 9 amino acids]", "values": [{"measurement": "relative binding ratio", "setting": "[3]", "value": "0.0005 ratio (IC50 standard / IC50 test)"}, {"measurement": "relative binding ratio", "setting": "[4]", "value": "0.0004 ratio (IC50 standard / IC50 test)"}]}
{"binder": "GLGMEHLREV (Synthetic peptide)", "note": "[HER2/neu A02 supermotif peptide, position 344, 10 amino acids]", "values": [{"measurement": "relative binding ratio", "setting": "HLA-A*0201", "value": "0.0017 ratio (IC50 of standard peptide / IC50 of test peptide)"}]}
{"binder": "DFGLARLLDI (also called Her2/neu.863 (10-mer))", "note": "[HER2/neu peptide, position 863, 10 amino acids]", "values": [{"measurement": "relative binding ratio", "setting": "HLA-A*2401", "value": "0.0002 ratio (IC50 of standard peptide / IC50 of test peptide)"}]}
{"binder": "HVKITDFGL (Synthetic peptide)", "note": "[HER2/neu A02 supermotif peptide, position 858, 9 amino acids]", "values": [{"measurement": "relative binding ratio", "setting": "HLA-A*0201", "value": "0.0002 ratio (IC50 of standard peptide / IC50 of test peptide)"}]}
{"binder": "GLRELQLRSL (Synthetic peptide)", "note": "[HER2/neu A02 supermotif peptide, position 136, 10 amino acids]", "values": [{"measurement": "relative binding ratio", "setting": "HLA-A*0201", "value": "0.0001 ratio (IC50 of standard peptide / IC50 of test peptide)"}]}
{"binder": "DFGLARLL (also called Her2/neu.863 (8-mer))", "note": "[HER2/neu peptide, position 863, 8 amino acids]", "values": [{"measurement": "relative binding ratio", "setting": "HLA-A*2401", "value": "0.0005 ratio (IC50 of standard peptide / IC50 of test peptide)"}]}
